Data reported in US20200109211A1 (ELSALYS BIOTECH, published 2020).

B1: FJ1516MP02A12 (H7 VH family 3) Fab clone (Fab, V domains shown)
VH: QVQLVQSGAEVKKPGASVKVSCKASGYTFTDYWMQWIRQAPGQGLEWIGAIYPGDDDAQFTQKFRGRATLTADKSTSTAYMELSSLRSEDTAVYYCARRGIAAVVGGFDYWGQGTTLTVSS
VL: EIVLTQSPATLSLSPGERATLSCRASQSISNHLHWYQQKPGQAPRLLIKYASQSISGIPARFSGSGSGTDFTLTISSLEPEDFAVYFCQQSNSWPLTFGGGTKVEIK
notes: Tested as Fab on phage and as soluble Fab in periplasmic extract
B2: FJ1516MP02G05 (H7 VH family 4) Fab clone (Fab, V domains shown)
VH: QVQLVQSGAEVKKPGASVKVSCKASGYTFADYWMQWIRQAPGQGLEWIGAIYPGDDDAQYTQKFRGRATLTADKSTSTAYMELSSLRSEDTAVYYCARRGIAAVVGGFDYWGQGTTLTVSS
VL: EIVLTQSPATLSLSPGERATLSCRASQSISNHLHWYQQKPGQAPRLLIKYASQSISGIPARFSGSGSGTDFTLTISSLEPEDFAVYFCQQSNSWPLTFGGGTKVEIK
notes: as for B1
B3: FJ1516MP02D09 (H7 VH family 2) Fab clone (Fab, V domains shown)
VH: QVQLVQSGAEVKKPGASVKVSCKASGYTFSESWMQWIRQAPGQGLEWIGAIYPGDDEARVTQKFRGRATLTADKSTSTAYMELSSLRSEDTAVYYCARRGIAAVVGGFDYWGQGTTLTVSS
VL: EIVLTQSPATLSLSPGERATLSCRASQSISNHLHWYQQKPGQAPRLLIKYASQSISGIPARFSGSGSGTDFTLTISSLEPEDFAVYFCQQSNSWPLTFGGGTKVEIK
notes: as for B1
B4: D12 IgG4 S228P/R409K/H310A/H435Q (antibody)
heavy: QVQLVQSGAEVKKPGASVKVSCKASGYTFSDFWMQWIRQAPGQGLEWIGAIYPGDDDARVTQKFRGRATLTADKSTSTAYMELSSLRSEDTAVYYCARRGIAAVVGGFDYWGQGTTLTVSSASTKGPSVFPLAPCSRSTSESTAALGCLVKDYFPEPVTVSWNSGALTSGVHTFPAVLQSSGLYSLSSVVTVPSSSLGTKTYTCNVDHKPSNTKVDKRVESKYGPPCPPCPAPEFLGGPSVFLFPPKPKDTLMISRTPEVTCVVVDVSQEDPEVQFNWYVDGVEVHNAKTKPREEQFNSTYRVVSVLTVLAQDWLNGKEYKCKVSNKGLPSSIEKTISKAKGQPREPQVYTLPPSQEEMTKNQVSLTCLVKGFYPSDIAVEWESNGQPENNYKTTPPVLDSDGSFFLYSKLTVDKSRWQEGNVFSCSVMHEALHNQYTQKSLSLSLG
light: EIVLTQSPATLSLSPGERATLSCRASQSISNHLHWYQQKPGQAPRLLIKYASQSISGIPARFSGSGSGTDFTLTISSLEPEDFAVYFCQQSNSWPLTFGGGTKVEIKRTVAAPSVFIFPPSDEQLKSGTASVVCLLNNFYPREAKVQWKVDNALQSGNSQESVTEQDSKDSTYSLSSTLTLSKADYEKHKVYACEVTHQGLSSPVTKSFNRGEC
notes: also called ELB01104; H7 IgG4 D12 S228P/R409K/H310A/H435Q

Experiments:
[1] = target: T1, recombinant human CD160 protein, soluble form, with a C-terminal tag of 6 histidine residues (R&D SYSTEMS) (human, UniProt O95971 27-159, limits assumed, biotinylated with EZ-Link sulfo-NHS-LC-biotin for BLI and ELISA; not biotinylated when immobilised on the CM5 chip for SPR); experiment: SPR (Biacore 3000), hCD160 on CM5 chip, periplasmic extract with soluble Fab diluted 1:5
T1 construct: domain: soluble form; Bought protein; also called hCD160-his; biotinylated CD160
T1 sequence: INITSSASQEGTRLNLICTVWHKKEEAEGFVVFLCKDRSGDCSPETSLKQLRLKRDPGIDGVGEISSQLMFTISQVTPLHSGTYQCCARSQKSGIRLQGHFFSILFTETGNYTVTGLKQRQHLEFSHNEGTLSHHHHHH
Protocol: The binding capacity of the H7 variants was also tested by surface plasmon resonance (SPR). For this, a Biacore 3000 (GE Healthcare) was used. […] The integrity of the immobilized human CD160 was confirmed using the anti-huCD160 H7 IgG1 antibody. For the kinetic measurements, concentrations in cascade of human ECD160 with two-fold dilutions (0.15 μM-10 μM) were injected, twice, in PBS, with a Biacore P20 buffer at 25° C. and a flow rate of 30 μl/min.
The regeneration conditions were tested and 10 pi of 10 mM NaOH/1M NaCl were injected for the regeneration between the sample injections. To analyse the binding of the clones to human CD160, the periplasmic extracts containing the soluble Fabs were diluted to 1:5 in BIACORE P20 buffer (10 mM Hepes, 150 mM NaCl, 3 mM EDTA, 0.005% Tween-20) with a flow rate of 30 μl/min for 120 seconds for the association; the dissociation was measured for 300 seconds.
The maximum absolute response of the binding of each of these variants (expressed as measurement of arbitrary response units at time=120 seconds post-injection of the antibody) was evaluated on a surface coated with CD160 protein.

[2] = target: T1, recombinant human CD160 protein, …; experiment: ELISA, soluble Fab in periplasmic extract
Source text: (§1) The binding of the clones selected (from the rounds of selection on CD160 protein and on CHO-CD160 cells) as soluble Fab was also looked at by ELISA and FACS using periplasmic extracts (P.E). The binding of the soluble Fabs to the human CD160 protein, using ELISA, was detected using an anti-c-myc antibody followed by an anti-mouse HRP conjugated antibody. The binding of the soluble Fabs to the CHO cells overexpressing human CD160 was detected using an anti-c-myc antibody followed by a goat anti-mouse APC conjugated antibody. The results of the ELISA and FACS experiments using Fabs expressed at the surface of the phages or in periplasmic extracts confirmed the binding capacity of each of the affinity-matured H7 clones to human CD160.

[3] = target: T2, human CD160 (CD160 GPI isoform) on cells (human, UniProt O95971 25-159, GPI anchor); experiment: phage FACS on CHO cells expressing hCD160
T2 construct: whole, on cells; Used for all cells said to carry human CD160: transfected CHO-S and E300 cells and cells that carry it naturally (YT2C2, blood NK, CD8+ T, T CD4, CLL cells); also called hCD160; CHO-S-hCD160 (clone 2G10)
T2 sequence (looked up): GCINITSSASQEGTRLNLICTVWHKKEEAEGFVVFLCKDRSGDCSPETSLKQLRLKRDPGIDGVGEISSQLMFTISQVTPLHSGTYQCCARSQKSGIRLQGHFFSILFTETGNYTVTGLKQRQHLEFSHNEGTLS
Source text: (§2) Thus, phage clones were generated and also made it possible to produce periplasmic extracts of bacteria, containing unpurified soluble Fabs. The individual clones were selected for their binding capacity to the human CD160 protein, by ELISA, and to cells expressing human CD160 by FACS, this being i) either in the form of gene III-Fab fusion proteins expressed at the surface of the filamentous phage or ii) in the form of periplasmic extracts containing fragments of unpurified soluble Fabs. The individual clones (in the form of periplasmic extracts containing fragments of soluble Fabs) were also classified according to their kinetic dissociation constant (kdis).
(§3) From a practical point of view, the binding of the phage to human CD160 was detected using an anti-M13 HRP conjugated antibody. The binding of the phage to the cells expressing CD160 was detected using a mouse anti-M13-biotin antibody followed by Streptavidin-PE.

[4] = target: T1, recombinant human CD160 protein, …; experiment: phage ELISA, Fab on phage
Source text: as §2, §3

[5] = target: T2, human CD160 (CD160 GPI isoform) on cells; experiment: FACS on CHO cells overexpressing hCD160, soluble Fab in periplasmic extract
Source text: as §1

[6] = target: T2, human CD160 (CD160 GPI isoform) on cells; experiment: flow cytometry, percentage of labelled YT2C2 NK cells, antibody 0.39-50 nM; the text means better binding
Protocol: (§4) The binding capacity of the anti-CD160 H7 antibody and of the H7 D12 variant in the IgG4, Fab and Fab-linker Fab format was evaluated during the labelling of surface CD160 expressed naturally on a clone of NK cell line (YT2C2), by measuring the percentage of cell labelled=percentage of binding (see FIG. 1C). For this, 2×10⁺⁵ YT2C2 cells were labelled with increasing concentration of antibodies (from 50 nM to 0.39 nM) and also with the appropriate control isotype. […] In FIG. 1C, IgG4 variants ELB01103 and ELB01104 bind more efficiently to the YT2C2 cells than the H7 IgG4 ELB01101 (which results in a EC₅₀ increased by a factor of 10 compared with H7 IgG4). This is also true for the Fab-linker-Fab format ELB01132. By contrast Fab format ELB01122 bind less efficiently to the YT2C2 cells than the H7 IgG4 ELB01101 (which results in a EC₅₀ decreased by a factor of 2 compared with H7 IgG4). This is certainly due to the monovalency of the Fab format.

[7] = target: T1, recombinant human CD160 protein, …; experiment: BLI
[8] = target: T2, human CD160 (CD160 GPI isoform) on cells; experiment: flow cytometry, percentage of labelled YT2C2 NK cells (2x10^5 cells), antibody 0.39 to 50 nM [panel C]
Protocol: as §4

[9] = target: T1, recombinant human CD160 protein, …; experiment: SPR (Biacore), design close to Example 2
[10] = target: T2, human CD160 (CD160 GPI isoform) on cells; experiment: flow cytometry on CHO-hCD160 transfectants
Protocol: The binding capacity of the anti-CD160 H7 antibodies and of the variants (D12 and A09) thereof in the IgG4 and IgG1 format and in the IgG1 E345K format was evaluated during the labelling of surface CD160 expressed in a recombinant line CHO-S-hCD160 (clone 2G10) in comparison with non-transfected CHO-S cells, by measuring the median fluorescence index (MFI) (see FIG. 1). For this, 5×10⁺⁵ 2G10 (CHO-S-CD160) and non-transfected CHO-S cells were labelled with 2 μg of each of these antibodies and also with the appropriate control isotypes. In FIG. 1, all the anti-CD160 tested (regardless of the isotype or the IgG format or the variant) specifically recognize human CD160 expressed recombinantly by the CHO-S cells.
In FIG. 1B, the IgG4 variants bind more efficiently to the CHO-hCD160 transfectants than H7 (which results in a median fluorescence increased by a factor of 2 compared with H7 IgG4 ELB01101 or with H7 IgG4 H310A-H435Q ELB01102), this being even in the presence of the H310A-H435Q mutations.

[11] = target: T1, recombinant human CD160 protein, …; experiment: BLI, biotinylated CD160 at 10 nM on streptavidin sensor, antibody 3.13-100 nM
[12] = target: T1, recombinant human CD160 protein, …; experiment: BLI (repeats Table 8)

Binder	Biacore R.U ratio (variant/FaWT 2E07) [1] [fold]	Biacore R.U ratio (variant/H7 WT) [1] [fold]	Binding response, RU arbitrary unit (at t = 120 s post-mab injection) [1] [RU]	P.E ELISA O.D450 nm on biotinylated CD160 [2] [OD450]	Phage FACS (% binding) [3] [%]	Phage ELISA O.D450 nm on biotinylated CD160 [4] [OD450]	P.E FACS (% binding) [5] [%]	also measured
B1	1.5	3.3	20.1	0.148	92.1	6	1.23	–
B2	1.2	2.6	16	0.141	86.9	3.46	1.06	–
B3	1.5	3.2	19.3	0.174	76.4	3.63	1.08	–
B4	–	–	–	–	–	–	–	EC50, factor against H7 IgG4 (ELB01101) [6]: 10 fold; Gain in KD/respective IgG [7]: 2 fold; EC50 (read off the curve) [8]: ~3 nM; Gain in KD/respective IgG [9]: 2.9 fold; Kd [9]: 5 nM; koff [9]: 0.00123 s⁻¹; kon [9]: 244000 M⁻¹ s⁻¹; median fluorescence, factor against H7 IgG4 H310A-H435Q ELB01102 [10]: 2 fold; Kd [11]: 1.49 nM; koff [11]: 0.000744 s⁻¹; kon [11]: 499000 M⁻¹ s⁻¹; Kd [12]: 1.49 nM; koff [12]: 0.000744 s⁻¹; kon [12]: 499000 M⁻¹ s⁻¹
